Source: PMC6155051, “Structures of insect Imp-L2 suggest an alternative strategy for regulating the bioavailability of insulin-like hormones” (Nature Communications, 2018)

What was measured:
[1] = biological target: Drosophila imaginal morphogenesis protein-late 2 protein (Imp-L2) (Drosophila melanogaster) (UniProt Q09024); assay: ITC; Imp-L2 (12.8-22.6 uM) in the cell, hormone about tenfold greater injected; 50 mM Tris, 150 mM NaCl, pH 7.4; 25 C; hormone concentrations adjusted to a 1:1 stoichiometry
[2] = biological target: Drosophila imaginal morphogenesis protein-late 2 protein (Imp-L2) (Drosophila melanogaster) (UniProt Q09024); assay: ITC; DILP5:Imp-L2 binding as a function of salt: 300 mM NaCl
[3] = biological target: Drosophila imaginal morphogenesis protein-late 2 protein (Imp-L2) (Drosophila melanogaster) (UniProt Q09024); assay: as above; remark: listed apart in the source
[4] = biological target: T1, Drosophila imaginal morphogenesis protein-late 2 protein (Imp-L2) (Drosophila melanogaster, UniProt Q09024 26-267); assay: ITC; 300 mM NaCl (legend says 400 mM)
T1 chain: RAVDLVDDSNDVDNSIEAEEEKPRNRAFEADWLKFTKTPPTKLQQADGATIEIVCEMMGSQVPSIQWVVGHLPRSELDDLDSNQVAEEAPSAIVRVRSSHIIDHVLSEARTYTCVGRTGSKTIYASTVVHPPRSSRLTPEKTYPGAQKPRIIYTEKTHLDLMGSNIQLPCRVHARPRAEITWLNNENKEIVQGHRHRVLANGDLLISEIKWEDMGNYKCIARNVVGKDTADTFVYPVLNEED

[5] = biological target: the molecule itself; assay: SEC-MALS; ligand-free Imp-L2, 1 mg/mL, 50 mM Tris pH 7.4, 50 mM NaCl; Superdex S200 10/300

For “Insulin X14 (ProB28Asp), fully monomeric mutant of human insulin (ligand)”, the Kd [1] was 135000 pM.

B1: Drosophila insulin-like peptide 5, C4 variant (B2-B29) (ligand)
chain 1: NSLRACGPALMDMLRVACPNGFNSMFAK
chain 2: DFRGVVDSCCRNSCSFSTLRAYCDS
For B1, the Kd [2] was 5 pM, the Kd [3] was 1 pM and the Kd [4] was 5.4 pM. It also gave a Kd [1] of 8000 pM.

B2: Drosophila imaginal morphogenesis protein-late 2 protein (Imp-L2) (natural protein, Drosophila melanogaster, UniProt Q09024 26-267, looked up)
chain: T1 chain
notes: signal peptide in the construct: full-length Drosophila Imp-L2 with the native signal peptide, secreted into the medium; After 3C cleavage, residues of the protease site should remain at the C-terminus (surmised); A selenomethionine-labelled form was also made; the apo structure was solved by MAD; also called Dm Imp-L2; apo-Imp-L2; source: baculovirus-infected Sf9 cells, purified from conditioned …
In the case of B2, the “stoichiometry N” value [5] is reported as 2.
